This is an account of results in patent US20140017242A1, “ANTI-BRADYKININ B2 RECEPTOR (BKB2R) MONOCLONAL ANTIBODY” (Diamedica, Inc., priority 2010, published 2014).

The labels stand for the following.
T1: human BKB2R-derived epitope peptide (SEQ ID NO:73), PEG-biotin (human, also: PEG-biotin, site not given here)
T1 construct: also called immunogenic human BKB2R peptide fragment
T1 peptide: KEYSDEGHNVTAC

B1: L2/HC: humanized light chain L2 (SEQ ID NO:9) with HC, the mouse original 5F12G1 VH (antibody)
heavy: EVKLEESGGGLVQPGGSMKLSCVVSGFTFSDYWMSWVRHSPEMGLEWVAEIRLKSDNYATHYAESVKGRFTISRDDSKSRLYLQINSLRGEDTGIYYCTRDYYAMEYWGQGTSVTVSS
light: DIVMTQSPLSLPVTPGEPASISCRSSQTIVHSNGKTYLEWYLQKPGQSPQLLIYKVSNRFSGVPDRFSGSGSGTEFTLKISRVEAEDVGVYYCFQASHVPYTFGQGTKLEIKRTVAAPSVFIFPPSDEQLKSGTASVVCLLNNFYPREAKVQWKVDNALQSGNSQESVTEQDSKDSTYSLSSTLTLSKADYEKHKVYACEVTHQGLSSPVTKSFNRGEC
modifications: left off: a dimerising Fc or GST
B2: L2/H1: humanized anti-BKB2R mAb, light chain L2 (SEQ ID NO:9), heavy chain H1 (SEQ ID NO:3) (antibody, V domains shown)
VH: EVQLVESGGGLVQPGGSLRLSCAASGFTFSDYWMSWVRQAPGKGLEWVAEIRLKSDNYATHYAESVKGRFTISRDNAKNSLYLQMNSLRAEDTAVYYCTRDYYAMEYWGQGTLVTVSS
VL: DIVMTQSPLSLPVTPGEPASISCRSSQTIVHSNGKTYLEWYLQKPGQSPQLLIYKVSNRFSGVPDRFSGSGSGTEFTLKISRVEAEDVGVYYCFQASHVPYTFGQGTKLEIK
modifications: Humanized H1 Heavy Chain Variable Region VH; Humanized L2 Light Chain Variable Region VL
B3: L2/H2: humanized anti-BKB2R mAb, light chain L2 (SEQ ID NO:9), heavy chain H2 (SEQ ID NO:4) (antibody, V domains shown)
VH: B2 VH with A23V, N76D
VL: B2 VL
modifications: Humanized H2 Heavy Chain Variable Region VH; Humanized L2 Light Chain Variable Region VL
B4: L1/H2: humanized anti-BKB2R mAb, light chain L1 (SEQ ID NO:8), heavy chain H2 (SEQ ID NO:4) (antibody, V domains shown)
VH: B2 VH with A23V, N76D
VL: B2 VL with E75D
modifications: Humanized H2 Heavy Chain Variable Region VH; Humanized L1 Light Chain Variable Region VL
B5: H37/L39: humanized anti-BKB2R mAb, heavy chain H37 (SEQ ID NO:5), light chain L39 (SEQ ID NO:12) (antibody, V domains shown)
VH: B2 VH with S35D, A49G, E64A, N76D, A77S, R89K, A90T, L113T
VL: B2 VL with I2V, S7T, P12S, E17Q, R24K, E75D
modifications: Humanized H37 Heavy Chain Variable Region VH; Humanized L39 Light Chain Region VL
B6: H37/L37: humanized anti-BKB2R mAb, heavy chain H37 (SEQ ID NO:5), light chain L37 (SEQ ID NO:10) (antibody, V domains shown)
VH: B2 VH with S35D, A49G, E64A, N76D, A77S, R89K, A90T, L113T
VL: B2 VL with S7T, P12S, E17Q, R24K, E39Y, N58S, E75D
modifications: Humanized H37 Heavy Chain Variable Region VH; Humanized L37 Light Chain Variable Region VL
B7: H38/L37: humanized anti-BKB2R mAb, heavy chain H38 (SEQ ID NO:6), light chain L37 (SEQ ID NO:10) (antibody, V domains shown)
VH: B2 VH with V5L, R19K, A24V, A49S, E64D, N76D, A77S, S80T
VL: B2 VL with S7T, P12S, E17Q, R24K, E39Y, N58S, E75D
modifications: Humanized H38 Heavy Chain Variable Region VH; Humanized L37 Light Chain Variable Region VL
B8: H37/L38: humanized anti-BKB2R mAb, heavy chain H37 (SEQ ID NO:5), light chain L38 (SEQ ID NO:11) (antibody, V domains shown)
VH: B2 VH with S35D, A49G, E64A, N76D, A77S, R89K, A90T, L113T
VL: B2 VL with S7T, P15S, E39D, F60A, E75D, Q105G, L109V
modifications: Humanized H37 Heavy Chain Variable Region VH; Humanized L38 Light Chain Variable Region VL
B9: H39/L38: humanized anti-BKB2R mAb, heavy chain H39 (SEQ ID NO:7), light chain L38 (SEQ ID NO:11) (antibody, V domains shown)
VH: EVKLVESGGGLVQPGGSLRLSCAVSGFTFSDYWMDWVRQAPGKGLEWVAEIRLKSDNYATHYAASVKGRFTISRDDSKSRLYLQMNSLKTEDTAVYYCTRDYYAMEYWGQGTTVTVSS
VL: B2 VL with S7T, P15S, E39D, F60A, E75D, Q105G, L109V
modifications: Humanized H39 Heavy Chain Variable Region VH; Humanized L38 Light Chain Variable Region VL
B10: H39/L39: humanized anti-BKB2R mAb, heavy chain H39 (SEQ ID NO:7), light chain L39 (SEQ ID NO:12) (antibody, V domains shown)
VH: B9 VH
VL: B2 VL with I2V, S7T, P12S, E17Q, R24K, E75D
modifications: Humanized H39 Heavy Chain Variable Region VH; Humanized L39 Light Chain Region VL
B11: humanized anti-BKB2R antibody L1/H2 (antibody, human IgG2, kappa, V domains shown)
VH: B2 VH with A23V, N76D
VL: DIVMTQSPLSLPVTPGEPASISCRSSQTIVHSNGKTYLEWYLQKPGQSPQLLIYKVSNRFSGVPDRFSGSGSGTDFTLKISRVEAEDVGVYYCFQASHVPYTFGQGTKLEIKR
B12: humanized anti-BKB2R antibody L2/H2 (antibody, human IgG2, kappa, V domains shown)
VH: B2 VH with A23V, N76D
VL: B11 VL with D75E
notes: also called H2/L2
B13: humanized anti-BKB2R antibody L2/H1 (antibody, human IgG2, kappa, V domains shown)
VH: B2 VH
VL: B11 VL with D75E

Positions count from the first letter of the chain named. Where no end group is shown, it is not given here.

In the first assay the target is T2, human BKB2R-derived epitope peptide, SE ID NO:73 (Homo sapiens, UniProt P30411).
T2 construct: purchased Biosyn, Lewisville, Tex
The assay is described as follows: ForteBio Octet binding kinetics to the BKB2R epitope peptide. Particulars: Conc. 250 nM. Here is the method:
Proteins corresponding to all combinations of humanized or chimeric (5F12G1 VH and VL on human IgG2 backbone) antibodies were tested for binding to the human BKB2R-derived epitope peptide, SE ID NO:73.
A ForteBio (Menlo Park, Calif., USA) Octet® platform was used to analyze the binding affinities and binding characteristics of the humanized monoclonal antibodies to the peptide epitope (SEQ ID NO:73) and compared to the original mouse monoclonal 5F12G1. This platform employed label-free technology for measuring biomolecular interactions by optical analysis of the interference pattern of white light reflected from two surfaces: a layer of immobilized protein on the biosensor tip, and an internal reference layer. Any change in the number of molecules bound to the biosensor tip caused a shift in the interference pattern that was measured in real-time. Binding specificity, and rates of association and dissociation were monitored.
(§1) For the Octet study, antibodies were analyzed by kinetic titration of the antibodies. Antibodies were prepared in kinetic buffer (0.001 M phosphate buffered saline (NaCl 0.0138 M; KCl-0.00027 M); pH 7.4, at 25° C., 0.1 mg/ml BSA, 0.002% Tween and 0.005% Sodium Azide) followed by 1:2 serial dilutions.
(§2) Sensor Prep: Streptavidin biosensors (FortéBio Inc, Menlo Park, Calif.) were coated by incubation in a solution containing a peptide ([…]-PEG-biotin) (Biosyn, Lewisville, Tex.) at 50 μg/ml (300 seconds/1000 rpm shaking). 96 well half-volume plates were used for testing. 90 μl of sample was plated per well. Sensors were allowed to equilibrate to baseline in kinetic buffer (60 seconds/1000 rpm). The sensors were then placed into the various antibody dilutions to allow binding (association) to the probe for 500 seconds/1000 rpm, and measurements were taken. The sensors were then moved into kinetic buffer without antibody for dissociation (500 seconds/1000 rpm), and measurements were taken. Octet system software calculated kinetic constants for on rate/off rate/affinity.
[…] […] Each concentration was tested twice. The HC and LC represented the mouse original 5F12G1 VH and VL sequences.
On the technique in general: Biolayer interferometry detects binding as a change in optical thickness at a sensor tip.
Usually kon stands for a measure of how fast the partners come together. On to B1, for which the “kdis” value was 0.732 s⁻¹ and the “kon” value was found to be 2.17e+06 M⁻¹ s⁻¹.
Consider B2, for which the “kdis” value stood at 0.00438 s⁻¹ and the “kon” value amounted to 216000 M⁻¹ s⁻¹.
For B3 the same measures were 0.0359 s⁻¹ and 1.76e+06 M⁻¹ s⁻¹.
Consider B4, for which the “kdis” value was 0.719 s⁻¹ and the “kon” value turned out to be 350000 M⁻¹ s⁻¹.

Staying with this assay, now noted: Conc. 500 nM.
In the case of B1, the “kdis” value was 0.655 s⁻¹ and the “kon” value came to 145000 M⁻¹ s⁻¹.
On to B2, for which the “kdis” value stood at 0.00507 s⁻¹ and the “kon” value came to 1.21e+06 M⁻¹ s⁻¹.
With B5, the “kdis” value came out at 1.98 s⁻¹ and the “kon” value worked out at 1.11e+06 M⁻¹ s⁻¹.
B3: the “kdis” value worked out at 0.0223 s⁻¹ and the “kon” value was found to be 992000 M⁻¹ s⁻¹.
For B6 the same measures were 1.18 s⁻¹ and 1.55e+06 M⁻¹ s⁻¹.
For B4, the “kdis” value was determined as 0.976 s⁻¹ and the “kon” value came out at 2.43e+06 M⁻¹ s⁻¹.
Taken in the same sequence, the figures for B7 were 29.4 s⁻¹ and 9.44e+06 M⁻¹ s⁻¹.
With B8, the “kdis” value amounted to 2.08 s⁻¹ and the “kon” value worked out at 9.47e+06 M⁻¹ s⁻¹.
As to B9, the “kdis” value was determined as 4.9 s⁻¹ and the “kon” value came to 6.44e+06 M⁻¹ s⁻¹.
B10: the “kdis” value turned out to be 1.26 s⁻¹ and the “kon” value turned out to be 729000 M⁻¹ s⁻¹.

The target of a further assay is T1, human BKB2R-derived epitope peptide …. The assay is described as follows: BLI (Octet), peptide-PEG-biotin on streptavidin sensor, antibody 250 nM.
Conditions: not given
Here is the method: as §1, §2
(§3) For test humanized monoclonal antibodies, the highest concentration used was 500 nM followed by 1:2 dilutions. Each concentration was tested twice. The HC and LC represented the mouse original 5F12G1 VH and VL sequences.
Broadly, the Kd is the free concentration of one partner at which half of the binding sites on the other are occupied at equilibrium, for simple one-to-one binding. As a reminder, the koff is the first-order rate constant of dissociation. On to B11, for which the Kd came out at 2050 nM, the “Max Response” value came out at 0.174, the koff worked out at 0.719 s⁻¹ and the kon is 350000 M⁻¹ s⁻¹.
As for B12, the Kd turned out to be 20.4 nM, the “Max Response” value stood at 0.171, the koff was 0.0359 s⁻¹ and the kon is 1.76e+06 M⁻¹ s⁻¹.
As to B13, the Kd came out at 20.3 nM, the “Max Response” value turned out to be 0.18, the koff is 0.00438 s⁻¹ and the kon was 216000 M⁻¹ s⁻¹.

The target is the same in another assay. The assay is described as follows: BLI (Octet), peptide-PEG-biotin on streptavidin sensor, antibody 500 nM.
Conditions: not given
Here is the method:
as §1, §2, §3
B11: the Kd was determined as 403 nM, the “Max Response” value was determined as 0.161, the koff was 0.976 s⁻¹ and the kon was determined as 2.43e+06 M⁻¹ s⁻¹.
For B12, the affinity, expressed as Kd, was 22.5 nM; the “Max Response” value was 0.171; the koff worked out at 0.0223 s⁻¹; the kon worked out at 992000 M⁻¹ s⁻¹.
B13: the Kd was determined as 4.19 nM, the “Max Response” value amounted to 0.172, the koff came out at 0.00507 s⁻¹ and the kon came out at 1.21e+06 M⁻¹ s⁻¹.
